Assay results: FireProtDB (doi:10.1074/jbc.271.12.6832)
Where “and” joins values, the source holds several entries; their conditions need not be identical. Equal entries are not always repeated.

Conditions: Streptococcus pneumoniae serotype 4 (strain ATCC BAA-334 / TIGR4); pH 6.9; Thermal; DSC; phosphate 20 mM; transition: 4; reversible: no; whole UniProt chain shown

B1: Autolysin wild type, P06653 (protein)
chain: MEINVSKLRTDLPQVGVQPYRQVHAHSTGNPHSTVQNEADYHWRKDPELGFFSHIVGNGCIMQVGPVDNGAWDVGGGWNAETYAAVELIESHSTKEEFMTDYRLYIELLRNLADEAGLPKTLDTGSLAGIKTHEYCTNNQPNNHSDHVDPYPYLAKWGISREQFKHDIENGLTIETGWQKNDTGYWYVHSDGSYPKDKFEKINGTWYYFDSSGYMLADRWRKHTDGNWYWFDNSGEMATGWKKIADKWYYFNEEGAMKTGWVKYKDTWYYLDAKEGAMVSNAFIQSADGTGWYYLKPDGTLADKPEFTVEPDGLITVK
unfolding enthalpy (van 't Hoff): 50 kcal/mol and 71 kcal/mol and 95 kcal/mol
